For the assay, the target named is T1, V/A-ATPase D subunit (Thermus thermophilus, UniProt O87880 1-223).
T1 sequence: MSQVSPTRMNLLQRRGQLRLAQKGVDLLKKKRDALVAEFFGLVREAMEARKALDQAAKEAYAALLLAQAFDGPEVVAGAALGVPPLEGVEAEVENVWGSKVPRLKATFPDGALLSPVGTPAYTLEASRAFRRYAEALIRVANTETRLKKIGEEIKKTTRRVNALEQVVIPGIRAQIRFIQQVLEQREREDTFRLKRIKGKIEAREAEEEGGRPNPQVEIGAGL
The assay is described as follows: cryo-EM structure.

B1: V/A-ATPase F subunit (natural protein, Thermus thermophilus)
chain: MAVIADPETAQGFRLAGLEGYGASSAEEAQSLLETLVERGGYALVAVDEALLPDPERAVERLMRGRDLPVLLPIAGLKEAFQGHDVEGYMRELVRKTIGFDIKL
With B1, the binding result is given as “binds”.

(Values after doi:10.1101/2022.10.04.510906 (bioRxiv, 2022).)
